The results in this text go back to patent US10378034B2, “Use of a N-acetylneuraminate lyase derived from the bacterium Aliivibrio salmonicida in the production of neuraminic acid and derivatives thereof” (Universitetet i Tromsø-Norges Arktiske Universitet, priority 2014, dated 2019).

The nature of data set [1]: Long term stability at different pH (condensation activity after one month). Type of data set: physicochemical. As to the method:
(§1) Long term stability of AsNAL at different pH was studied by incubating the enzyme at pH values from 6.0 to 11.0 at room temperature for a month. Buffers used were Sodium phosphate (pH 6.0-7.0), HEPES (pH 7.0-8.0), Tris-HCl (pH 8.0-9.0) and glycine (pH 9.0-11.0). The enzyme activity in the condensation direction was measured using the standard reaction mixture incubated at room temperature for 1 h, with subsequent TBA assay. The stability of AsNAL at different pH was also studied using the thermofluor method described by Ericsson et al. (2006) where increased or decreased stability is related to the increase or decrease in the melting temperature of the protein. For the thermofluor assay, the protein was dialyzed overnight at 4° C. against a buffer containing 10 mM HEPES pH 7.5, 150 mM NaCl and 2 mM β-ME in Pierce Slide-A-Lyzer dialysis cassettes with a 3.5 kDa cutoff. The dialyzed protein was mixed with 2 μl of 300× Sypro® Orange protein gel stain (Sigma) and 100 mM of different buffers ranging from pH 5.0 to pH 9.0. Thermal shifts were screened for by heating in an iCycler iQ Real Time PCR Detection System (Bio-Rad Laboratories) from 1 to 80° C. in increments of 1° C./min. The buffers tested were: Sodium acetate (pH 5.0), Phosphate citrate (pH 5.0-5.5), Sodium citrate (pH 5.5), MES (pH 6.0-6.5), Na-cacodylate (pH 6.0-6.5), Sodium dipotassium phosphate (pH 6.5), BisTris (pH 7.0), HEPES (pH 7.0-8.0), Tris-HCl (pH 7.5-8.5), Imidazole (pH 7.5-8.0), Bicine (pH 8.5) and BisTris propane (pH 8.5-9.0).

A short description of data set [2]: Thermofluor thermal denaturation. Type of data set: physicochemical. As to the method: as §1, with “The buffers tested were: Sodium acetate (pH 5.0), Phosphate citrate (pH 5.0-5.5), Sodium citrate (pH 5.5), MES (pH 6.0-6.5), Na-cacodylate (pH 6.0-6.5), Sodium dipotassium phosphate (pH 6.5), BisTris (pH 7.0), HEPES (pH 7.0-8.0), Tris-HCl (pH 7.5-8.5), Imidazole (pH 7.5-8.0), Bicine (pH 8.5) and BisTris propane (pH 8.5-9.0).” left out

A short description of data set [3]: Differential scanning calorimetry (DSC). Format: physicochemical. The following applies: 500 mM NaCl, 50 mM HEPES pH 7.5. As to the method: The melting temperature of AsNAL was studied by differential scanning calorimetry (DSC). The pure protein was dialyzed overnight at 4° C. against a buffer containing 50 mM HEPES, pH 7.5 and 500 mM NaCl in a Pierce Slide-A-Lyzer dialysis cassette (3.5 kDa cut-off). Dialyzed protein was concentrated to 1.9 mg/ml using a 10 kDa cutoff Amicon Ultra spin-column (Millipore), filtered through a 0.2 μm filter (Millipore) and degassed for 15 min. DSC experiments were carried out with a Nano-Differential Scanning Calorimeter III, (calorimetry Sciences Corporation) at a scan rate of 1° C./min in the range from 1 to 80° C. and with a constant pressure of 3 atm. The dialysis buffer was used as reference in the DSC runs. The melting temperature of the protein was calculated by subtracting the buffer-buffer baseline from the protein scan. Refolding experiments were carried out by a reverse cooling scan, allowing the unfolded protein to be kept at 4° C. overnight before a new forward scan was done. The NanoAnalyze™ software was used to calculate the melting temperature. The experimental transition curves were fitted on a two-state transition model.

A short description of data set [4]: Comparative specific activity, condensation reaction (TBA assay). Type of data set: biochemical. As to the method: Both the condensation and cleavage activities of NAL were assessed using the modified thiobarbituric acid (TBA) assay developed by Aminoff (1961) and Warren (1959). The condensation activity was determined by incubating 50 μl of a reaction mixture containing 15 mM sodium pyruvate, 15 mM ManNAc, 124 mM HEPES pH 8.0 and different concentrations of enzyme depending on assay type at selected temperatures for the required amount of time. The reaction was terminated by adding 137 μl 2.5 mg/ml sodium periodate in 57 mM H2SO4, followed by incubation at 37° C. for 15 min with shaking at 1350 rpm. Sodium arsenite (50 μl, 25 mg/ml sodium arsenite in 0.5 M HCl) was added resulting in brown color. The tubes were shaken manually until the brown color disappeared. 2-thiobarbituric acid solution (100 μl, 71 mg/ml adjusted to pH 9.0) was subsequently added, and the tubes were incubated in boiling water for 7.5 min. The tubes were incubated on ice for 5 min and allowed to remain at room temperature for 5 min. The red chromophore was extracted by addition of acidic butanol (1 ml of acidic butanol with 5% HCl) and horizontal shaking for 10 min. Tubes were centrifuged at 16060×g, 7 min (room temperature) to separate the organic and inorganic phases. The organic phase containing the red chromophore (200 μl) was used for measurement of absorbance at 549 nm in a spectrophotometer (SpectraMax M2e, Molecular Devices). The amount of Neu5Ac produced was inferred from a standard curve. To generate a standard curve, different concentrations of Neu5Ac (0.031 mM-1 mM) were treated with 137 μl of 2.5 mg/ml sodium periodate in 57 mM H2SO4 and the TBA assay procedure was followed as described above.
Standard reaction mixtures were incubated at room temperature for 1 h before being subjected to the TBA assay.

The nature of data set [5]: Integrated reaction: Neu5Ac production from GlcNAc and pyruvate at alkaline pH (TBA assay). Type of data set: biochemical. As to the method: For ManNAc reactions, the buffer used was HEPES, pH 8.0. […] Experiments were performed in triplicate. For ManNAc experiments, aliquots were sampled after 0.5, 1.0, 1.5, 2.5 and 4.0 h. For GlcNAc experiments, aliquots were sampled after 12, 24, 36, 48 and 72 h. Reactions were terminated by addition of 2 μl concentrated H2SO4. The time needed for N-acetylneuraminic acid (Neu5Ac) production to get started under these conditions was known to take longer time based on initial test experiments. The thiobarbituric acid (TBA) assay procedure was followed to determine the amount of Neu5Ac produced. The activity was corrected for a blank value. The blank contained all the reaction components except for enzyme.
Initially, also glycine buffer was tested at pH 10.5 and pH 11.0 for the reactions with GlcNAc. GlcNAc will chemically epimerize to ManNAc at pH values above 9.0, which the enzyme will use as substrate for the production of Neu5Ac. The epimerization is pH dependent and will increase with increasing pH. Production of Neu5Ac was higher in CAPS buffer compared to glycine buffer, so this was chosen for further experiments.

B1: AsNAL: N-acetylneuraminate lyase isolated from the psychrophilic bacterium Aliivibrio salmonicida LFI1238, recombinantly expressed in E. coli (protein, listed as Aliivibrio salmonicida)
chain: MKKLTGLIAAPHTPFDSSSNVNFEEIDKIAKHLINDGVKGIYVCGTTGEGIHCSVEERKAIAERWVSACNHKLDIIVHTGALSIVDTLELTRHADTLDILATSAIGPCFFKPGSVSDLVEYCATIAAAAPSKGFYYYHSGMSGVNLNMEEFLIQADKRIPNLSGLKFNSGDLYEYQRCLRACDGKFDVPFGVDEFLPGALAVGAKSAVGSTYNYAAPHFNSIIEAFNKGDHDAVFNKMTNVIELIRVLVEFGGVAAGKIAMELHDINAGDPRLPLMPLSAEQKLTVVEKMRAANFLK
For B1, the “decrease in activity (condensation) after one month” value in data set [1] (Glycine pH 11.0, room temperature) came out at 3.3%; in data set [1] (HEPES pH 8.0, room temperature), 14.5%; in data set [1] (Phosphate pH 7.0, room temperature), 15%; in data set [1] (Tris-HCl pH 8.0, room temperature), 14%; in data set [1] (Tris-HCl pH 8.5, room temperature) it was 6.4%; in data set [1] (Tris-HCl pH 9.0, room temperature) it was 4%. The “activity retained after storage compared to initial activity” value in data set [1] (all measured pH (6.0 to 11.0), one month, room temperature) was “More than 83%”. In addition, the “melting temperature (thermofluor)” value came out at 76.9 °C in data set [2] (500 mM NaCl) and 73.15±0.21 °C in data set [2] (milli-Q water). In addition, the “melting temperature (DSC)” value in data set [3] was 77.5 °C. The “ΔH (DSC)” value in data set [3] worked out at 179.164 kcal/mol. Moreover, the “ΔS (DSC)” value in data set [3] is recorded as 2.137 kJ/(mol·K). Besides, the “specific activity of the condensation reaction, higher than EcNAL” value in data set [4] (4° C.) is on record as 40%; in data set [4] (23° C.), 60%; in data set [4] (37° C.) it was 40%. Further, in data set [5] (pyruvate and GlcNAc 4:1, CAPS pH 11.0, 48 h), the “production of Neu5Ac relative to highest amount obtained with pyruvate and ManNAc 4:1 at pH 8.0” value is reported as “around 60%”. The “production of Neu5Ac (in words)” value in data set [5] (pyruvate and GlcNAc, CAPS pH 11.5) was “able to produce Neu5Ac in the same range as at pH 11.0”.
